Biological target: peptide containing the sequence LAETG

B1: SrtE1^ΔN, extracellular domain of sortase E1 from Streptomyces coelicolor (residues T162-S352), Q9XA14 162-352 (enzyme)
chain: TNVRAHAQANQAASNLQDDWANGKRSPGSFEPGQGFALLHIPKLDVVVPIAEGISSKKVLDRGMVGHYAEDGLKTAMPDAKAGNFGLAGHRNTHGEPFRYINKLEPGDPIVVETQDKYFVYKMASILPVTSPSNVSVLDPVPKQSGFKGPGRYITLTTCTPEFTSKYRMIVWGKMVEERPRSKGKPDALVS
B1 gave a hydrolysis of the peptide at the T-G bond, in vitro HPLC assay (area of the N-terminal product peak); preference against the LPETG peptide of 2 fold.

Source: article PMC5148588
